Results on 5 proteins are retold here after US20240026331.

The target of this series is gliadin substrate.

B1: activated (mature, proteolytically active) neprosin Npr1 prepared by acid treatment (100 mM glycine, pH 2.5) of Npr1 purified from cells expressing … (protein)
chain: SANTNHQYAVIAYFYGNASLQGANATINIWEPNLKNPNGDFSLTQIWISAGSGSSLNTIEAGWQVYPGRTGDSQPRFFIYWTADGYTSTGCYDLTCPGFVQTNNYYAIGMALQPSVYGGQQYELNESIQRDPATGNWWLYLWGTVVGYWPASIYNSITNGADTVEWGGEIYDSSGTGGFHTTTQMGSGHFPTEGYGKASYVRDLQCVDTYGNVISPTANSFQGIAPAPNCYNYQFQQGSSELYLFYGGPGCQ
With B1, the “gliadin digestion in buffered SGF (pH 3, 0.8 mg/mL pepsin), RIDASCREEN Gliadin competitive ELISA, 0-60 min” value is “shows equivalent gliadin digestion activity when compared to the enzyme prepared from mammalian CHO cells”; the “proteolytic activity on gliadin substrate (percent of gliadin remaining, RIDASCREEN Gliadin competitive ELISA; pH 4, 37 C, 5 or 30 min)” value was “Neprosin preparation activated by treatment at acidic pH displays significantly greater proteolytic activity compared to unactivated neprosin polypeptide prepared from cells expressing mSP-His-Npr1”; the “proteolytic activity on gliadin substrate inside a mouse stomach (enzyme-to-substrate ratio 1:1000 or 1:10,000, 15 min; RIDASCREEN Gliadin competitive ELISA)” value is “dose-dependent proteolytic activity of activated WT Npr1 prepared from Npr1 expressed in CHO cells on gliadin substrate inside a mouse stomach”.

B2: activated N216A/N324A Npr1 prepared from pJAG-s1-His-N216A, N324A Npr1 expressed in Pichia cells (SEQ ID NO: 66) (protein)
chain: SANTNHQYAVIAYFYGAASLQGANATINIWEPNLKNPNGDFSLTQIWISAGSGSSLNTIEAGWQVYPGRTGDSQPRFFIYWTADGYTSTGCYDLTCPGFVQTNNYYAIGMALQPSVYGGQQYELAESIQRDPATGNWWLYLWGTVVGYWPASIYNSITNGADTVEWGGEIYDSSGTGGFHTTTQMGSGHFPTEGYGKASYVRDLQCVDTYGNVISPTANSFQGIAPAPNCYNYQFQQGSSELYLFYGGPGCQ
Take B2: the “gliadin digestion in buffered SGF (pH 3, 0.8 mg/mL pepsin), RIDASCREEN Gliadin competitive ELISA” value is “Both N216A Npr1 and N216A/N324A Npr1 digested gliadin in a similar manner as WT Npr1 produced in Pichia”.

B3: activated N216A Npr1 prepared from pJAG-s1-His-N216A Npr1 expressed in Pichia cells (SEQ ID NO: 60) (protein)
chain: SANTNHQYAVIAYFYGAASLQGANATINIWEPNLKNPNGDFSLTQIWISAGSGSSLNTIEAGWQVYPGRTGDSQPRFFIYWTADGYTSTGCYDLTCPGFVQTNNYYAIGMALQPSVYGGQQYELNESIQRDPATGNWWLYLWGTVVGYWPASIYNSITNGADTVEWGGEIYDSSGTGGFHTTTQMGSGHFPTEGYGKASYVRDLQCVDTYGNVISPTANSFQGIAPAPNCYNYQFQQGSSELYLFYGGPGCQ
In the case of B3, the “gliadin digestion in buffered SGF (pH 3, 0.8 mg/mL pepsin), RIDASCREEN Gliadin competitive ELISA” value was “Both N216A Npr1 and N216A/N324A Npr1 digested gliadin in a similar manner as WT Npr1 produced in Pichia”.

B4: activated WT Npr1 prepared from Npr1 expressed in Pichia cells (pJAG-s1-His-Npr1) (protein)
chain: SANTNHQYAVIAYFYGNASLQGANATINIWEPNLKNPNGDFSLTQIWISAGSGSSLNTIEAGWQVYPGRTGDSQPRFFIYWTADGYTSTGCYDLTCPGFVQTNNYYAIGMALQPSVYGGQQYELNESIQRDPATGNWWLYLWGTVVGYWPASIYNSITNGADTVEWGGEIYDSSGTGGFHTTTQMGSGHFPTEGYGKASYVRDLQCVDTYGNVISPTANSFQGIAPAPNCYNYQFQQGSSELYLFYGGPGCQ
Consider B4, for which the “gliadin digestion in buffered SGF (pH 3, 0.8 mg/mL pepsin), RIDASCREEN Gliadin competitive ELISA, 0-60 min” value was “The activated neprosin protease from Pichia is proteolytically active on gliadin substrate in SGF and shows equivalent gliadin digestion activity when compared to the enzyme prepared from mammalian CHO cells”.

B5: unactivated neprosin polypeptide prepared from cells expressing mSP-His-Npr1 (SEQ ID NO: 40) (protein)
chain: HHHHHHRSIQARLANKPKGTIKTIKGDDGEVVDCVDIYKQPAFDHPLLKNHTLQMQPSSYASKVGEYNKLEQPWHKNGECPKGSIPIRRQVITGLPVVKKQFPNLKFAPPSANTNHQYAVIAYFYGNASLQGANATINIWEPNLKNPNGDFSLTQIWISAGSGSSLNTIEAGWQVYPGRTGDSQPRFFIYWTADGYTSTGCYDLTCPGFVQTNNYYAIGMALQPSVYGGQQYELNESIQRDPATGNWWLYLWGTVVGYWPASIYNSITNGADTVEWGGEIYDSSGTGGFHTTTQMGSGHFPTEGYGKASYVRDLQCVDTYGNVISPTANSFQGIAPAPNCYNYQFQQGSSELYLFYGGPGCQ
In the case of B5, the “proteolytic activity on gliadin substrate (percent of gliadin remaining, RIDASCREEN Gliadin competitive ELISA; pH 4, 37 C, 5 or 30 min)” value is given as “Neprosin preparation activated by treatment at acidic pH displays significantly greater proteolytic activity compared to unactivated neprosin polypeptide prepared from cells expressing mSP-His-Npr1”.
